In this test the target is MAPKAP kinase II (MK2) (UniProt P49137). In words: cell-based or functional assay.

We go through one substance from patent publication US20090149389A1.

MAPKAP kinase II (MK2), sequence (P49137 whole entry): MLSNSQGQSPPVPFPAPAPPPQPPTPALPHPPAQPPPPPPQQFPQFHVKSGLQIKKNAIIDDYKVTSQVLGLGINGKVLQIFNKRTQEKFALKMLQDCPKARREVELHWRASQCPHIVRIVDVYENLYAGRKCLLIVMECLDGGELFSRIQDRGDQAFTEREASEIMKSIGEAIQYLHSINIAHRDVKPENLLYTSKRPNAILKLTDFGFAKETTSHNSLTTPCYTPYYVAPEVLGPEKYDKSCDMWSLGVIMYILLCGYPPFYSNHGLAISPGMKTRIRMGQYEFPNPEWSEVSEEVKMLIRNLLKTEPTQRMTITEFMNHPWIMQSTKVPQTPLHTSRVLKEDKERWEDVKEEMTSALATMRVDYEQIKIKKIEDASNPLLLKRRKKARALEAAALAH

For the substance KALNRdQLGVAA (peptide), the % of … [SEQ ID NO: 124] Reaction Velocity at an Inhibitor Concentration of 100 µM stood at 276%.
